# Measured values as given in PMC8113546.
# How the values were obtained:
# [1] = flow cytometry of cell-surface B7H3; details: glycan lost
# [2] = CHX chase, remaining B7H3 by immunoblot (half-life); details: glycan lost
# [3] = IP of B7H3-WT-Flag, ubiquitin immunoblot; details: glycan lost; control: untreated
# [4] = B7H3 IHC of 4T1 B7H3-WT tumours; details: glycan changed form; control: PBS
# [5] = flow cytometry of cell-surface B7H3, 4T1-B7H3KO; details: glycan lost; control: B7H3-WT
# [6] = immunoblot, MDA-MB-231 and HCC1806; details: glycan changed form; control: control sgRNA
# [7] = flow cytometry of cell-surface B7H3, B7H3-WT cells; details: glycan changed form; control: control sgRNA
# [8] = flow cytometry of cell-surface B7H3, MDA-MB-231; details: glycan changed form; control: untreated
protein,measurement,setting,value
B7H3: tunicamycin (TM) (protein) parent chain: MLRRRGSPGMGVHVGAALGALWFCLTGALEVQVPEDPVVALVGTDATLCCSFSPEPGFSLAQLNLIWQLTDTKQLVHSFAEGQDQGSAYANRTALFPDLLAQGNASLRLQRVRVADEGSFTCFVSIRDFGSAAVSLQVAAPYSKPSMTLEPNKDLRPGDTVTITCSSYQGYPEAEVFWQDGQGVPLTGNVTTSQMANEQGLFDVHSILRVVLGANGTYSCLVRNPVLQQDAHSSVTITPQRSPTGAVEVQVPEDPVVALVGTDATLRCSFSPEPGFSLAQLNLIWQLTDTKQLVHSFTEGRDQGSAYANRTALFPDLLAQGNASLRLQRVRVADEGSFTCFVSIRDFGSAAVSLQVAAPYSKPSMTLEPNKDLRPGDTVTITCSSYRGYPEAEVFWQDGQGVPLTGNVTTSQMANEQGLFDVHSVLRVVLGANGTYSCLVRNPVLQQDAHGSVTITGQPMTFPPEALWVTVGLSVCLIALLVALAFVCWRKIKQSCEEENAGAEDQDGEGEGSKTALQPLKHSDSKEDDGQEIA,localisation_or_trafficking,[1]; control: untreated,decreases
same,degradation_or_half_life,[2]; control: untreated,decreases
same,other: K48 ubiquitination,[3],increases
mouse B7H3: 2F-Fuc (protein) parent chain: MLRGWGGPSVGVCVRTALGVLCLCLTGAVEVQVSEDPVVALVDTDATLRCSFSPEPGFSLAQLNLIWQLTDTKQLVHSFTEGRDQGSAYSNRTALFPDLLVQGNASLRLQRVRVTDEGSYTCFVSIQDFDSAAVSLQVAAPYSKPSMTLEPNKDLRPGNMVTITCSSYQGYPEAEVFWKDGQGVPLTGNVTTSQMANERGLFDVHSVLRVVLGANGTYSCLVRNPVLQQDAHGSVTITGQPLTFPPEALWVTVGLSVCLVVLLVALAFVCWRKIKQSCEEENAGAEDQDGDGEGSKTALRPLKPSENKEDDGQEIA,expression_or_secretion,[4],decreases
B7H3: B7H3-8NQ (protein) parent chain: MLRRRGSPGMGVHVGAALGALWFCLTGALEVQVPEDPVVALVGTDATLCCSFSPEPGFSLAQLNLIWQLTDTKQLVHSFAEGQDQGSAYANRTALFPDLLAQGNASLRLQRVRVADEGSFTCFVSIRDFGSAAVSLQVAAPYSKPSMTLEPNKDLRPGDTVTITCSSYQGYPEAEVFWQDGQGVPLTGNVTTSQMANEQGLFDVHSILRVVLGANGTYSCLVRNPVLQQDAHSSVTITPQRSPTGAVEVQVPEDPVVALVGTDATLRCSFSPEPGFSLAQLNLIWQLTDTKQLVHSFTEGRDQGSAYANRTALFPDLLAQGNASLRLQRVRVADEGSFTCFVSIRDFGSAAVSLQVAAPYSKPSMTLEPNKDLRPGDTVTITCSSYRGYPEAEVFWQDGQGVPLTGNVTTSQMANEQGLFDVHSVLRVVLGANGTYSCLVRNPVLQQDAHGSVTITGQPMTFPPEALWVTVGLSVCLIALLVALAFVCWRKIKQSCEEENAGAEDQDGEGEGSKTALQPLKHSDSKEDDGQEIA,localisation_or_trafficking,[1]; control: B7H3-WT,abolishes
same,degradation_or_half_life,[2]; control: B7H3-WT,decreases
mouse B7H3: B7H3-4NQ (protein) parent chain: MLRGWGGPSVGVCVRTALGVLCLCLTGAVEVQVSEDPVVALVDTDATLRCSFSPEPGFSLAQLNLIWQLTDTKQLVHSFTEGRDQGSAYSNRTALFPDLLVQGNASLRLQRVRVTDEGSYTCFVSIQDFDSAAVSLQVAAPYSKPSMTLEPNKDLRPGNMVTITCSSYQGYPEAEVFWKDGQGVPLTGNVTTSQMANERGLFDVHSVLRVVLGANGTYSCLVRNPVLQQDAHGSVTITGQPLTFPPEALWVTVGLSVCLVVLLVALAFVCWRKIKQSCEEENAGAEDQDGDGEGSKTALRPLKPSENKEDDGQEIA,localisation_or_trafficking,[5],abolishes
B7H3: FUT8 knockout (protein) parent chain: MLRRRGSPGMGVHVGAALGALWFCLTGALEVQVPEDPVVALVGTDATLCCSFSPEPGFSLAQLNLIWQLTDTKQLVHSFAEGQDQGSAYANRTALFPDLLAQGNASLRLQRVRVADEGSFTCFVSIRDFGSAAVSLQVAAPYSKPSMTLEPNKDLRPGDTVTITCSSYQGYPEAEVFWQDGQGVPLTGNVTTSQMANEQGLFDVHSILRVVLGANGTYSCLVRNPVLQQDAHSSVTITPQRSPTGAVEVQVPEDPVVALVGTDATLRCSFSPEPGFSLAQLNLIWQLTDTKQLVHSFTEGRDQGSAYANRTALFPDLLAQGNASLRLQRVRVADEGSFTCFVSIRDFGSAAVSLQVAAPYSKPSMTLEPNKDLRPGDTVTITCSSYRGYPEAEVFWQDGQGVPLTGNVTTSQMANEQGLFDVHSVLRVVLGANGTYSCLVRNPVLQQDAHGSVTITGQPMTFPPEALWVTVGLSVCLIALLVALAFVCWRKIKQSCEEENAGAEDQDGEGEGSKTALQPLKHSDSKEDDGQEIA,expression_or_secretion,[6],decreases
same,localisation_or_trafficking,[7],decreases
B7H3: 2F-Fuc (protein) parent chain: MLRRRGSPGMGVHVGAALGALWFCLTGALEVQVPEDPVVALVGTDATLCCSFSPEPGFSLAQLNLIWQLTDTKQLVHSFAEGQDQGSAYANRTALFPDLLAQGNASLRLQRVRVADEGSFTCFVSIRDFGSAAVSLQVAAPYSKPSMTLEPNKDLRPGDTVTITCSSYQGYPEAEVFWQDGQGVPLTGNVTTSQMANEQGLFDVHSILRVVLGANGTYSCLVRNPVLQQDAHSSVTITPQRSPTGAVEVQVPEDPVVALVGTDATLRCSFSPEPGFSLAQLNLIWQLTDTKQLVHSFTEGRDQGSAYANRTALFPDLLAQGNASLRLQRVRVADEGSFTCFVSIRDFGSAAVSLQVAAPYSKPSMTLEPNKDLRPGDTVTITCSSYRGYPEAEVFWQDGQGVPLTGNVTTSQMANEQGLFDVHSVLRVVLGANGTYSCLVRNPVLQQDAHGSVTITGQPMTFPPEALWVTVGLSVCLIALLVALAFVCWRKIKQSCEEENAGAEDQDGEGEGSKTALQPLKHSDSKEDDGQEIA,localisation_or_trafficking,[8],decreases
